This is an account of results in PMC5701637, “Identification and Analysis of Novel Inhibitors against NS3 Helicase and NS5B RNA-Dependent RNA Polymerase from Hepatitis C Virus 1b (Con1)”.

The target of the series is NS3 helicase (NS3h) (Hepatitis C virus genotype 1b (Con1), UniProt Q9WMX2 1193-1660). Kind of series: fluorescence polarization; 5 nM DNA, 15 nM NS3h, 1.25 mM MgCl2; FP: 25 mM MOPS pH 7.5, 1.25 mM MgCl2, 0.0025 mg/mL BSA, 0.005% Tween 20, 0.025 mM DTT, 1% DMSO, temperature not stated; EMSA: 50 mM Tris-Cl pH 7.4, 10% glycerol, 0 C, 20 min. The settings on record: protein: recombinant; tags: His tag (pET21b(+), HisTrap purified); single strand. On the technique in general: In fluorescence polarisation assays a small probe gives low polarisation when free and higher when bound to something large.
Chain of NS3 helicase (NS3h) (Q9WMX2 1193-1660): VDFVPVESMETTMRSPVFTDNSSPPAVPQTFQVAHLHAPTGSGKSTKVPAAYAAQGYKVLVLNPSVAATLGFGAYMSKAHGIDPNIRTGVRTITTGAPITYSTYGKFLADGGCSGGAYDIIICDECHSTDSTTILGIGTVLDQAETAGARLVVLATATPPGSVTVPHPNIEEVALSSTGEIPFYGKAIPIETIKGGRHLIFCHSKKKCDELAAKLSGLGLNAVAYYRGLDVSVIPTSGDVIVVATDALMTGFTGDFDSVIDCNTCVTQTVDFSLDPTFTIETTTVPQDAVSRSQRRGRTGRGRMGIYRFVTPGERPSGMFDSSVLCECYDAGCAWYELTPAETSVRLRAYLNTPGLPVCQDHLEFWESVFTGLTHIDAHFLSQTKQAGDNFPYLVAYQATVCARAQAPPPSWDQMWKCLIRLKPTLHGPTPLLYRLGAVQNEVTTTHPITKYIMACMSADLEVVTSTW

B1: Cy5-dT15 (ssDNA)
DNA: TTTTTTTTTTTTTTT
With B1, the binding result was “binds”.
